In article PMC4826616 one finds reduction of binding against plasma homozygous for the Y402 allele, percent competition of the binding of CFH to apoptotic blebs and Kd data, which are given here for three substances.

A value given as a limit tells only on which side of the number the result lay.

For assay [1], the target named is MDA-modified low density lipoprotein. As to the kind of experiment: ELISA. (In general: In an ELISA, binding on a coated surface is turned into a signal by an enzyme label.)
Assay [2] deals with complement factor H (purified CFH) (UniProt P08603). Nature of the assay: flow cytometry on cells. A general note: A flow cytometer gives signals particle by particle.
The target of assay [3] is MAA-modified bovine serum albumin (bovine) (UniProt P02769). As to the kind of experiment: ELISA.

Consider “CFH variant H402 (from UniProt P08603 19-1231) (natural protein)”, for which, in assay [1], the reduction of binding against plasma homozygous for the Y402 allele amounted to 52%. Consider “MAA-modified bovine serum albumin (from UniProt P02769 25-607)”, for which the percent competition of the binding of CFH to apoptotic blebs in assay [2] was > 60%.

Take “complement factor H (purified CFH) (from UniProt P08603 19-1231) (natural protein)”: the Kd – broadly, the concentration at which binding is half-saturated – in assay [3] is 64 nM.
